In EP1506972A1 (Genentech Inc., dated 2005):

Biological target: IGF-I N26A (G1S-A70V background) displayed on phage (human; bacteriophage M13)
Experiment: competitive phage ELISA, soluble IGFBP-1 vs coated IGFBP-1

IC50: 9.1 nM
relative IC50 (IC50mut/IC50 G1S-A70V): 1.1 fold
B1: human IGFBP-1 (other, UniProt P08833 26-259, looked up)
chain: APWQCAPCSAEKLALCPPVSASCSEVTRSAGCGCCPMCALPLGAACGVATARCARGLSCRALPGEQQPLHALTRGQGACVQESDASAPHAAEAGSPESPESTEITEEELLDNFHLMAPSEEDHSILWDAISTYDGSKALHVTNIKKWKEPCRIELYRVVESLAKAQETSGEEISKFYLPNCNKNGFYHSRQCETSMDGEAGLCWCVYPWNGKRIPGSPEIRGDPNCQIYFNVQN
notes: Secreted recombinant protein
